US20260151499A1 (TSINGHUA UNIVERSITY, published 2026)

T1: CD73 protein (UniProt P21589 27-549)
T1 construct: also called CD73-biotin
T1 sequence (looked up): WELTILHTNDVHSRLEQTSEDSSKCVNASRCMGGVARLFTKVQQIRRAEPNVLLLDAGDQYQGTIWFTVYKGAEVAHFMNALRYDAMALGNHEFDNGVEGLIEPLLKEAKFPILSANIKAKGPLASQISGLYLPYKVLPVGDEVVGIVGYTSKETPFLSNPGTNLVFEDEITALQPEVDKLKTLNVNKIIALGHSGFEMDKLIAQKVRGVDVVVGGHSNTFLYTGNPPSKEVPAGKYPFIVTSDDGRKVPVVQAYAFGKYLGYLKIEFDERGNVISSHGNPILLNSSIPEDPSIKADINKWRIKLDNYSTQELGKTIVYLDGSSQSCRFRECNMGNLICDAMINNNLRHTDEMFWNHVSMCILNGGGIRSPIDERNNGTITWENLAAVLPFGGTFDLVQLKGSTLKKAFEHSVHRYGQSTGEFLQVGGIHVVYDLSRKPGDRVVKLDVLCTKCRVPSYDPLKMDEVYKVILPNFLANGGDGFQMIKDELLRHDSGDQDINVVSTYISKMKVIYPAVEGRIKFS

B1: 10A7-BN3 (antibody, V domains shown)
VH: EVQLVESGGGLVQPGGSLRLSCAASGFAFSSYSMSWVRQAPGKGLEWIGSIYYSGSTYYNPSLKSRVTISADTSKNTAYLQMNSLRAEDTAVYYCARNSGFETLDYWGQGTLVTVSS
VL: DIQMTQSPSSLSASVGDRVTITCRASQGISRWLAWYQQKPGKAPNLLIYGASTLQSGVPPRFSGSRSGTDFTLTISSLQPEDFATYYCQQXYTTPPTFGQGTKLEI
modifications: position marked * in QQ*YTTPPT (light chain residue 91): unnatural amino acid (UAA) with azide, conjugated to BN3 (PSB12379-PEG3-DBCO)
notes: also called 10A7 Ab-BN3
B2: ABN3-2B-BN3 (antibody, V domains shown)
VH: EVQLVESGGGLVQPGGSLRLSCAASGFTFSSYWMHWVRQAPGKGLEWVSAVSGSGDSTYYADSVKGRFTISADTSKNTAYLQMNSLRAEDTAVYYCAREGDWGLDYWGQGTLVTVSS
VL: DIQMTQSPSSLSASVGDRVTITCRASQGINNYLAWYQQKPGKAPKLLIYDASNLETGVPSRFSGSRSGTDFTLTISSLQPEDFATYYCQQXYTTPPTFGQGTKLEI
modifications: not fully specified; position marked * in QQ*YTTPPT (light chain residue 91): unnatural amino acid (UAA) with azide, conjugated to BN3 (PSB12379-PEG3-DBCO)
notes: also called ABN3-2B Ab-BN3; ABN-2B
B3: 14H4-PEG3-ASF (antibody, V domains shown)
VH: EVQLVESGGGLVQPGGSLRLSCAASGFSFSKFWMHWVRQAPGKGLEWVAFMAHDESNKNYADSVKGRFTISADTSKNTAYLQMNSLRAEDTAVYYCARDKVCNTFDIWGQGTLVTVSS
VL: DIQMTQSPSSLSASVGDRVTITCRASQSISSDLNWYQQKPGKAPKLLIYRATFLESGVPSRFSGSRSGTDFTLTISSLQPEDFATYYCQQXYTTPPTFGQGTKLEI
modifications: position marked * in QQ*YTTPPT (light chain residue 91): unnatural amino acid (UAA) with azide, conjugated to ASF-PEG3-DBCO
B4: 14E6-PEG3-ASF (antibody, V domains shown)
VH: EVQLVESGGGLVQPGGSLRLSCAASGFTFSNFAMHWVRQAPGKGLEYVSAISGGNGGGTYYADSAKGRFTISADTSKNTAYLQMNSLRAEDTAVYYCAREGNYCLDYWGQGTLVTVSS
VL: DIQMTQSPSSLSASVGDRVTITCRASQPISDWLAWYQQKPGKAPKSLIYDAYNLQSGVPPRFSGSRSGTDFTLTISSLQPEDFATYYCQQXYTTPPTFGQGTKLEI
modifications: position marked * in QQ*YTTPPT (light chain residue 91): unnatural amino acid (UAA) with azide, conjugated to ASF-PEG3-DBCO
B5: 10D8-BN3 (antibody, V domains shown)
VH: EVQLVESGGGLVQPGGSLRLSCAASGFTFSTYAIHWVRQAPGKGLEWVSSISGSGGGGGTYYADSVKGRFTISADTSKNTAYLQMNSLRAEDTAVYYCARDRGFLQFDYWGQGTLVTVSS
VL: DIQMTQSPSSLSASVGDRVTITCRASQSISSWLAWYQQKPGKAPKLLIYDVSNVQTGVPSRFSGSRSGTDFTLTISSLQPEDFATYYCQQXYTTPPTFGQGTKLEI
modifications: position marked * in QQ*YTTPPT (light chain residue 91): unnatural amino acid (UAA) with azide, conjugated to BN3 (PSB12379-PEG3-DBCO)
notes: also called 10D8 Ab-BN3
B6: 10A7-Fab-BN3 (Fab, V domains shown)
VH: EVQLVESGGGLVQPGGSLRLSCAASGFAFSSYSMSWVRQAPGKGLEWIGSIYYSGSTYYNPSLKSRVTISADTSKNTAYLQMNSLRAEDTAVYYCARNSGFETLDYWGQGTLVTVSS
VL: DIQMTQSPSSLSASVGDRVTITCRASQGISRWLAWYQQKPGKAPNLLIYGASTLQSGVPPRFSGSRSGTDFTLTISSLQPEDFATYYCQQXYTTPPTFGQGTKLEI
modifications: position marked * in QQ*YTTPPT (light chain residue 91): unnatural amino acid (UAA) with azide, conjugated to BN3 (PSB12379-PEG3-DBCO)
B7: ABN3-2G-BN3 (antibody, V domains shown)
VH: EVQLVESGGGLVQPGGSLRLSCAASGITFGSYTMSWVRQAPGKGLEWIGTVHYTGKTFYSPSLKSRVTISADTSKNTAYLQMNSLRAEDTAVYYCARGRDFGEPPYVRAFDIWGQGTLVTVSS
VL: DIQMTQSPSSLSASVGDRVTITCQASHDISKYLNWYQQKPGKAPKLLIYDASNLETGVPSRFSGSRSGTDFTLTISSLQPEDFATYYCQQXYTTPPTFGQGTKLEI
modifications: not fully specified; position marked * in QQ*YTTPPT (light chain residue 91): unnatural amino acid (UAA) with azide, conjugated to BN3 (PSB12379-PEG3-DBCO)
notes: also called ABN3-2G Ab-BN3

Legend:
CD73 protein [1] = target: T1, CD73 protein; assay: Octet BLI; Ab-BN3 on protein A sensors, CD73 in solution
CD73 protein [2] = target: T1, CD73 protein; assay: cell-based or functional assay
NaV1.7 = NaV1.7 (UniProt Q15858 1-1988); assay: cell-based or functional assay
NaV1.7, sequence (Q15858 whole entry): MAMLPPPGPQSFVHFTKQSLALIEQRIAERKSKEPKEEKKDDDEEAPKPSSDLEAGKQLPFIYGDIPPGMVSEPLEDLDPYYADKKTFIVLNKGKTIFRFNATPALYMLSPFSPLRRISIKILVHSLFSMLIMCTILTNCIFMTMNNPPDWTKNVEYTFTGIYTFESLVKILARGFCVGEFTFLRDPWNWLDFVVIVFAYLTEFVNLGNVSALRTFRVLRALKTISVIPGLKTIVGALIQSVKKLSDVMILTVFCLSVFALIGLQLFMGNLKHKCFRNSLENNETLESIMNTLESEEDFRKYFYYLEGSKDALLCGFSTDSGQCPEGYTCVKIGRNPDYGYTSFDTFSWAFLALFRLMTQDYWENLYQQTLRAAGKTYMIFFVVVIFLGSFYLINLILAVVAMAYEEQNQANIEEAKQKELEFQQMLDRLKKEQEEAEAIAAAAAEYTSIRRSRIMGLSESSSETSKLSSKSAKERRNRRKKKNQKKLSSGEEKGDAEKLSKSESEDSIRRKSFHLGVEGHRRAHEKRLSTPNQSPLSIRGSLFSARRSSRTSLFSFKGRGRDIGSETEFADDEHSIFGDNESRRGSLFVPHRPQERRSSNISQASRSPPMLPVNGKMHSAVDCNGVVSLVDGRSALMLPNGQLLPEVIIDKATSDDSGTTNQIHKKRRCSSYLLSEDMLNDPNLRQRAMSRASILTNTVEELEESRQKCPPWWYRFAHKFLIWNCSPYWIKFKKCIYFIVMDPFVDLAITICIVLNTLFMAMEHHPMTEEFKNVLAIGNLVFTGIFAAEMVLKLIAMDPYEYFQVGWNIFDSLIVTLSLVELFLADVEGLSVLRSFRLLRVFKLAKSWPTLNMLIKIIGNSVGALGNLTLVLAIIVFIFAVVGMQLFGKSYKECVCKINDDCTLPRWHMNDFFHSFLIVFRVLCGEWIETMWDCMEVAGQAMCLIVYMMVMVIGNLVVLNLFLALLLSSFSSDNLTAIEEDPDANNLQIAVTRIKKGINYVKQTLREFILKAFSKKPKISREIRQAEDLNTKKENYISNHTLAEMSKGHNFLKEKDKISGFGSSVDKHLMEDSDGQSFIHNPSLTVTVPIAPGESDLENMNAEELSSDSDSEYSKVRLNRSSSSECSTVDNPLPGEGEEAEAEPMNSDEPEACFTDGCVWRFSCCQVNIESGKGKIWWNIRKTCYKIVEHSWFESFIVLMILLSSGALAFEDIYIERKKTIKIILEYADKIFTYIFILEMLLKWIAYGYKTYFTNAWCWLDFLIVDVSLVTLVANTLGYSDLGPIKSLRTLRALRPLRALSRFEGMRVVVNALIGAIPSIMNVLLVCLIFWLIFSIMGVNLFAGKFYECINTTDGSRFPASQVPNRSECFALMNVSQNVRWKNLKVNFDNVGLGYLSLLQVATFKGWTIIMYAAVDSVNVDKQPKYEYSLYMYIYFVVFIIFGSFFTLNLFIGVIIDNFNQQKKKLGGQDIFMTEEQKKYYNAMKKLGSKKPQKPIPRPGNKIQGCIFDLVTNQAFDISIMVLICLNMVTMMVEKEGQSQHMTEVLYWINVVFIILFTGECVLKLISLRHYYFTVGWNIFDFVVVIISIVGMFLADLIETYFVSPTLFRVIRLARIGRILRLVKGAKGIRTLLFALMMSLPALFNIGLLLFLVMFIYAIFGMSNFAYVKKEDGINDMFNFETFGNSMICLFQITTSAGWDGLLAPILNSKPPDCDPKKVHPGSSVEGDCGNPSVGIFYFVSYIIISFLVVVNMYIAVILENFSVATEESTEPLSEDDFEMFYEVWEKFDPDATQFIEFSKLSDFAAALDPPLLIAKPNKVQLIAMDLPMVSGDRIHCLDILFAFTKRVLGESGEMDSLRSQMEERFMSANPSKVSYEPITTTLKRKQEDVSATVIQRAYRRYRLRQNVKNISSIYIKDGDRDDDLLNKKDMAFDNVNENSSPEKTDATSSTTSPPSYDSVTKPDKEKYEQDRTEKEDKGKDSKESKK

NaV1.2 = NaV1.2 (UniProt Q99250 1-2005); assay: cell-based or functional assay
NaV1.2, sequence (Q99250 whole entry): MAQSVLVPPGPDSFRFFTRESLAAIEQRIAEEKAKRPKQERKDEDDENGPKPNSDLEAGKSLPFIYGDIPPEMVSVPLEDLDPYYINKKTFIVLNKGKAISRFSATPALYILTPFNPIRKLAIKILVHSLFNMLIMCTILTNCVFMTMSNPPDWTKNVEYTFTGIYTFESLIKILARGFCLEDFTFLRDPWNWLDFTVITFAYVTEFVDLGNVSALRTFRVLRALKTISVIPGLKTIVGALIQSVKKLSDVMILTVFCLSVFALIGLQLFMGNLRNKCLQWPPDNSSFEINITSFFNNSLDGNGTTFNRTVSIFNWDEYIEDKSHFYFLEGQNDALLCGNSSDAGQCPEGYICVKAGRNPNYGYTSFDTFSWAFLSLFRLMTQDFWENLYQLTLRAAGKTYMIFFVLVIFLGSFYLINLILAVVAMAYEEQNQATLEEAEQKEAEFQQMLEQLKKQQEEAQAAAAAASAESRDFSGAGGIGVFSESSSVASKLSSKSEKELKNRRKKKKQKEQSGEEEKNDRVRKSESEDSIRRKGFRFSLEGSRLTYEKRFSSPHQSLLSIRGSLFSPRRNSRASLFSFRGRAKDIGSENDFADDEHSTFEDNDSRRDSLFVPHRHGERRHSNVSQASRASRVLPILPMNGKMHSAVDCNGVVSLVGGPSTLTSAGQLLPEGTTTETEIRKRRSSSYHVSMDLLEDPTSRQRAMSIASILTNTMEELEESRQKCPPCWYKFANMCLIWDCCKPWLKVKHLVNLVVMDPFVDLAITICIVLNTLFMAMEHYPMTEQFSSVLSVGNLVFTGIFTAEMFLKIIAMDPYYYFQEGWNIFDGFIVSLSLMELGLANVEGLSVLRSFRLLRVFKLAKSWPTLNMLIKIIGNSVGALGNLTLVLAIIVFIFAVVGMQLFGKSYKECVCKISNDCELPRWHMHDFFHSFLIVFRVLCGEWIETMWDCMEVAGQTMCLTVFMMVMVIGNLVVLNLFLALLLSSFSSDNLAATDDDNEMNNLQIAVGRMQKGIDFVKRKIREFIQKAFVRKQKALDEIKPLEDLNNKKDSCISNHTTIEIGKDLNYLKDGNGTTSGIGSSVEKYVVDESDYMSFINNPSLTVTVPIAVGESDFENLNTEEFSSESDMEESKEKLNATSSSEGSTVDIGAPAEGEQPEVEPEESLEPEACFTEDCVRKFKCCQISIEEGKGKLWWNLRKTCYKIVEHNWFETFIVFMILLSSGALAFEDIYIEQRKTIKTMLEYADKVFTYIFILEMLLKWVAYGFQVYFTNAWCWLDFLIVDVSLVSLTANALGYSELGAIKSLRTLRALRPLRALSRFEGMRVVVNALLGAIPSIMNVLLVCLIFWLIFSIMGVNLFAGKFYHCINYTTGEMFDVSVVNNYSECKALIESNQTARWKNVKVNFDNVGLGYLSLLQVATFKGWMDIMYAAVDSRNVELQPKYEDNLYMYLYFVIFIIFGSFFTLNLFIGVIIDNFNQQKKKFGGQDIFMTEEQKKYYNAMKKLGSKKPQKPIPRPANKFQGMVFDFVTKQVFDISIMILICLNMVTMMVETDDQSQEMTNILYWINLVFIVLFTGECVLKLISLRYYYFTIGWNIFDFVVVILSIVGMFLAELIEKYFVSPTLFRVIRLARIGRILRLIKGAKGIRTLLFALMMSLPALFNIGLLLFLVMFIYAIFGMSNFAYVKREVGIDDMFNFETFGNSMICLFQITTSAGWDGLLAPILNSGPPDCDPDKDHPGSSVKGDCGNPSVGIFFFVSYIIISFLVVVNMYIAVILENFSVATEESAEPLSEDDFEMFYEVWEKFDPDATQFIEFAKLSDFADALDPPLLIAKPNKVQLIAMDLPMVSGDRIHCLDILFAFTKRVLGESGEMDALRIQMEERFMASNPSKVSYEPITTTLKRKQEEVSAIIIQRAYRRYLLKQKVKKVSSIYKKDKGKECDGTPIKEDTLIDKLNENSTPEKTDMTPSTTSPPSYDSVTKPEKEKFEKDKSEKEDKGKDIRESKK

CD73 protein [3] = target: T1, CD73 protein; assay: cell-based or functional assay; remark: listed apart in the source

Binder | Kd (CD73 protein [1]) [nM] | koff (CD73 protein [1]) [s⁻¹] | kon (CD73 protein [1]) [M⁻¹ s⁻¹] | IC90 of inhibition of CD73 (malachite green phosphate assay) (CD73 protein [2]) [nM] | IC50 on HEK293-NaV1.7 cells, by curve fitting (NaV1.7) [nM] | IC50 on HEK293-NaV1.2 cells (NaV1.2) [nM] | IC50 of inhibition of CD73, against that of 10A7-BN3 (CD73 protein [3])
B1 | 0.888 | 0.000191 | 215000 | 2.92 | – | – | –
B2 | 3.16 | 0.000582 | 185000 | – | – | – | –
B3 | – | – | – | – | > 500 | 2.73 | –
B4 | – | – | – | – | – | 5.02 | –
B5 | 1.35 | 0.000275 | 204000 | > 100 | – | – | –
B6 | – | – | – | – | – | – | ~0.2 fold of the IC50 of 10A7-BN3
B7 | 0.887 | 0.000271 | 305000 | 25.9 | – | – | –
